Assay results published in doi:10.1101/2024.11.16.623920.

B1: CaArv1-V5 (C. albicans Arv1 tagged with V5 at its C-terminus) (natural protein)
chain: MICIECGYSNIDCLYSKYKSDYIKLSVCPECNKIADKYIEYDSVILFLDILLLKRQAYKHLAYNLTEMEMEIGSSTNFHINDNTNFKFFHTYRKLMKLIFMILSFEVYLTWANEEKLLIHSQLINLIFNQSVVYQYLFFIIKSSLENLILNLSLQLILRLGYKWGQGPQKINGNIRDKELFGYKTSVLLVTTMVSGSIRLFPILMFIWPYDNISITKPLINLIAFINIVEALRVVTSLGYVELILSLAFSIVIRNIVSKSLLVLIVRLFLDFNFTEVYYNEMYQLYSQIQTYIRWI

Columns and labels:
Test in all cases: FRET or BRET
[1] = target: CaGpi2-His6 (C. albicans Gpi2, GPI-GnT subunit, tagged with His6 at the C-terminus) (C. albicans) (UniProt Q5A6L6)
[2] = target: CaGpi3 (C. albicans Gpi3, GPI-GnT subunit) (C. albicans (endogenous in BWP17-derived cells))
[3] = target: CaGpi8 (C. albicans Gpi8, subunit of the GPI-transamidase) (C. albicans (endogenous in the cells))

| Molecule | spatial distance r (AP-FRET) [1] [nm] | spatial distance r (AP-FRET) [2] [nm] | spatial distance r (AP-FRET) [3] [nm] |
| --- | --- | --- | --- |
| CaRas1 (C. albicans Ras1) (natural protein) | 5.3 |  |  |
| B1 |  | 6.3 | > 10 |
